The results in this text go back to patent publication US20260226142A1.

In this assay the target is Cys-HLA (Staphylococcus aureus).

B1: Bm28H12 (VHH)
VHH: QVQLVESGGSVVQAGGSLRLSCTASGRNFNSYAMGWFRRPPGEQRDFIAAIIRSTGKTTYADSDSVKGRFTISKDSSGNTVYLQMNNLKPEDTAIYYCAGGDAGPYAFGYDYWGQGTQVTVSS
Regarding B1, the Kd – broadly, the concentration at which binding is half-saturated – worked out at 0.1 nM.
